Data from patent US20230038638A1, “COMPLEMENT FACTOR I-RELATED COMPOSITIONS AND METHODS” (published 2023).

Legend:
human C4b (human) [1] = target: T1, human C4b (human) (UniProt P0C0L4)
T1 sequence: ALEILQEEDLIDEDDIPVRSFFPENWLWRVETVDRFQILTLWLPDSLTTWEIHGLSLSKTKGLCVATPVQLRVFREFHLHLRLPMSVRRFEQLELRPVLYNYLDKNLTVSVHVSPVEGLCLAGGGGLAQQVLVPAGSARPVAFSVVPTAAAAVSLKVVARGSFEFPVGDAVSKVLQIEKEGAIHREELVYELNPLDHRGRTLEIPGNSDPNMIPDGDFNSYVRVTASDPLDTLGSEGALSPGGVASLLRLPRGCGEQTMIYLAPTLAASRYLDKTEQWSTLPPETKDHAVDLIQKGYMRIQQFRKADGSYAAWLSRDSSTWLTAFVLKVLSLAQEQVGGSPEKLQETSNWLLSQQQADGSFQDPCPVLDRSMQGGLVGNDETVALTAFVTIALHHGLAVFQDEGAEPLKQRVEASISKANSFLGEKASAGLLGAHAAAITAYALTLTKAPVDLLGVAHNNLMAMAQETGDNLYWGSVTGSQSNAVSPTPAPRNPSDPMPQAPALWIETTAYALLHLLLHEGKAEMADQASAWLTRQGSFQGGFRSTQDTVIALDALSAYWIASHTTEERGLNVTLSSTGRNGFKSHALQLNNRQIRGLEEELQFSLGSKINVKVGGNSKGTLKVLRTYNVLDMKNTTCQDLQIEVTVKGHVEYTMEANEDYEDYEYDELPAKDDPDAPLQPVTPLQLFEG

[2] = target: soluble human C3b (human) (UniProt P01024)
human C4b (human) [3] = target: T1, human C4b (human); remark: listed apart in the source
[4] = target: soluble human C3b (human) (UniProt P01024); remark: listed apart in the source

| Substance | C4b Screen Ref Fold (fold of CFI-HSA wild type) (human C4b (human) [1]) | iC3b Screen Ref Fold (fold of CFI-HSA wild type) [2] | C4c EC50 (nM) (human C4b (human) [3]) | iC3b EC50 [4] | C4b Screen Ref Fold (fold of reference) (human C4b (human) [1]) | iC3b Screen Ref Fold (fold of reference) [2] | C4c EC50 (human C4b (human) [3]) |
| --- | --- | --- | --- | --- | --- | --- | --- |
| CFI-HSA variant D425R; E457G; E461Q; N531G (enzyme) | 4.25 | 1.9 | 4 nM | 2.2 nM | – | – | – |
| CFI-HSA variant E392G (enzyme) | 1.3 | 1.66 | 143 nM | 9.6 nM | – | – | – |
| CFI-HSA variant E416A; E457G; E461Q; N531G (enzyme) | 4.01 | 1.69 | 26.1 nM | 4.2 nM | – | – | – |
| CFI-HSA variant E416A; K504H (enzyme) | 0.63 | 0.59 | 168 nM | 20.8 nM | – | – | – |
| CFI-HSA variant E416A; N422K; E457G; E461Q; Q467K; N531G (enzyme) | 3.84 | 3.05 | 4.4 nM | 1.7 nM | – | – | – |
| CFI-HSA variant E457G; E461Q; E530Y; N531G; P558S (enzyme) | 4.04 | 1.25 | 21 nM | 5.2 nM | – | – | – |
| CFI-HSA variant E457G; E461Q; F464Y; E530F; N531G; P558S (enzyme) | 4.21 | 2.01 | 18.1 nM | 4.2 nM | – | – | – |
| CFI-HSA variant E457G; E461Q; F464Y; K504H; N531G (enzyme) | 1.78 | 0.49 | > 1000 nM | 22.7 nM | – | – | – |
| CFI-HSA variant E457G; E461Q; R462K; F464Y; E530F; N531G; P558S (enzyme) | 4.65 | 2.22 | 21.4 nM | 5.5 nM | – | – | – |
| CFI-HSA variant E457K (enzyme) | – | – | 135 nM | 9.5 nM | 4.58 | 1.37 | – |
| CFI-HSA variant E457L (enzyme) | – | – | > 1000 nM | 51.4 nM | 0.14 | 0.21 | – |
| CFI-HSA variant E457M (enzyme) | – | – | 482 nM | 25.4 nM | 1.6 | 1.05 | – |
| CFI-HSA variant E457N (enzyme) | – | – | 215 nM | 16.3 nM | 4.31 | 0.9 | – |
| CFI-HSA variant E457Q (enzyme) | – | – | 395 nM | 19.8 nM | 1.8 | 1 | – |
| CFI-HSA variant E457R (enzyme) | – | – | 182 nM | 10.5 nM | 4.6 | 1.42 | – |
| CFI-HSA variant E457S (enzyme) | – | – | 428 nM | 21.3 nM | 0.81 | 1.07 | – |
| CFI-HSA variant E457T (enzyme) | – | – | > 1000 nM | 10.4 nM | 1.34 | 1.5 | – |
| CFI-HSA variant E457V (enzyme) | – | – | 567 nM | 40.6 nM | 0.99 | 0.8 | – |
| CFI-HSA variant E457W (enzyme) | – | – | > 1000 nM | 110 nM | 0.09 | 0.15 | – |

| Substance | C4b Screen Ref Fold (fold of CFI-HSA wild type) (human C4b (human) [1]) | iC3b Screen Ref Fold (fold of CFI-HSA wild type) [2] | C4c EC50 (nM) (human C4b (human) [3]) | iC3b EC50 [4] | C4b Screen Ref Fold (fold of reference) (human C4b (human) [1]) | iC3b Screen Ref Fold (fold of reference) [2] | C4c EC50 (human C4b (human) [3]) |
| --- | --- | --- | --- | --- | --- | --- | --- |
| CFI-HSA variant E457Y (enzyme) | – | – | > 1000 nM | 90.6 nM | 0.12 | 0.03 | – |
| CFI-HSA variant E461H (enzyme) | – | – | 134 nM | 11.7 nM | 3.16 | 1.3 | – |
| CFI-HSA variant E461I (enzyme) | – | – | 100 nM | 9.8 nM | 3.83 | 1.44 | – |
| CFI-HSA variant E461L (enzyme) | – | – | 87.5 nM | 7.3 nM | 4.22 | 1.71 | – |
| CFI-HSA variant E461M (enzyme) | – | – | 148 nM | 6.9 nM | 1.9 | 2.12 | – |
| CFI-HSA variant E461V (enzyme) | – | – | 64.4 nM | 8.9 nM | 4.79 | 2.03 | – |
| CFI-HSA variant E530F; E457G; E461Q; N531G (enzyme) | 4.17 | 2.48 | 9.1 nM | 2.9 nM | – | – | – |
| CFI-HSA variant E530R (enzyme) | – | – | – | 14.7 nM | 0.76 | 0.8 | > 1000 nM |
| CFI-HSA variant G406A (enzyme) | – | – | 176 nM | 42.6 nM | 1.96 | 0.36 | – |
| CFI-HSA variant G406D (enzyme) | – | – | > 1000 nM | 151 nM | 0.33 | 0.12 | – |
| CFI-HSA variant G406D; Y408L (enzyme) | – | – | – | 78.2 nM | 0.15 | -0.02 | > 1000 nM |
| CFI-HSA variant G406E (enzyme) | – | – | > 1000 nM | 116 nM | 0.88 | 0.13 | – |
| CFI-HSA variant G406F (enzyme) | – | – | – | 37.2 nM | 0.72 | 0.73 | > 1000 nM |
| CFI-HSA variant G406H (enzyme) | – | – | – | 20.4 nM | 1.17 | 0.6 | 197 nM |
| CFI-HSA variant G406I (enzyme) | – | – | – | 54.4 nM | 0.97 | 0.4 | > 1000 nM |
| CFI-HSA variant G406L (enzyme) | – | – | – | 31.9 nM | 0.92 | 0.82 | 386 nM |
| CFI-HSA variant G406M (enzyme) | – | – | – | 40.5 nM | 1.17 | 0.6 | > 1000 nM |
| CFI-HSA variant G406N (enzyme) | – | – | – | 35.2 nM | 0.94 | 0.59 | > 1000 nM |
